Results: the nanobody polyreactivity screen of Harvey et al. (2022)

Assay: yeast display, Sf9 membrane polyspecificity reagent, FACS + sequencing; frameworks hold sequencing errors
Outline: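 A nanobody's polyreactivity label depends on the gate it was sorted from. Yeast display cells were stained with 10% biotinylated, detergent-solubilized Sf9 membrane reagent for 1 hour at 4 °C, enriched on streptavidin microbeads and sorted by FACS. The low and high (top ~1%) gates were set on anti-HA fluorescence for expression and streptavidin fluorescence for reagent binding.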

Row | Sequence | polyreactivity (PSR sort gate)
1 | QVQVVESGGGLVQAGGSLRLSCAASGGTFSPYDMGWYRQAPGKERELVASITRSGGSTYYADSVKGRFTISRGNSKNTVYLQMNSLKPEDTAVYYCAAQGYWTYWPYLLRLYDYWGQGTQVTVSS | low polyreactivity
2 | QVQLVESGGGLVQAGGSLRLSCAASGRSFRDYGMGWYRQAPGKERELVAVITWGGGSTYYADSVKGRFTISRDNAKNTVYLQMNSLKPEDTAVYYCAKEYHYYYWGQGTQVTVSS | low polyreactivity
3 | QVQLVESGGGLVQAGGSLRLSCAASGLTFVGNAMGWYRQAPGKERELVAAISRSGGRTYYADSVKGRFTISRDNAKNTVYLQMNSLKPEDTAVYYCAAPYRSYDWYDYWGQGTQVTVSS | high polyreactivity
4 | QVQIVESGGGLVQAGGSLRLSCAASGRTYKYYAMGWYRQAPGKERELDAGITSGSSTSYADSVKGRFTISRDNAKNTVYLQMNSLKPEDTAVYYCAAGIYPYRYDYWGQGTQVTVSS | high polyreactivity
5 | QVQLVESGGGLVQAGGSLRLSCAASGSIFNYYAMGWYRQAPGKERDLVAAITTSGGNTYYADSVKGRFTISRDNAKNTVYLLMYSLKPEDTAVYYCAADYWASGGEYDYWGQGTQVSVSS | low polyreactivity
6 | QVQLVESGGGLVQAGGSLRLSCAASGFTFPYYAMGWYSQAPGKERELVAAINRSGGITYYADSVRGRFTISRDNAKNTVYLQMKSLKPEDTAVYYCAAPSFGYRTWSVFGSGHDYWGQGTQVTVSS | high polyreactivity
7 | QVQLVESGGGLVQAGGSLRLSCAASGSTLVTHAMGWYRQAPGKERELVAGISRSGGSTYYADSVKGRFTISRDNAKNTVYLQMNSLKPEDTAVYYCAARNYRYLYRMEYWGQGTQVTVSS | high polyreactivity
8 | QVQLVESGGGLVQAGGSLRLSCAASGSTFSTYAMGWYRQAPGKERELVAVITWRGGSTYYADSVKGRFTISRDNAKNTVYLQMNSLKPEDTAVYYCAAEGESPEYDYWGQGTQVTVSS | low polyreactivity
9 | QVQLVESGGGLVQAGGSLRLICAASGSTFAYNYMGWYRQAPGKERELVPDIRSGGNTNYADSVKGRFTISRDNAKNTVYLQMNSLKPEDTAVYYCATDGYRIDVYHPDYRYDYWGQGTQVTVSS | low polyreactivity
10 | QVQLVESGGGLVQAGGSLRLSCAASGFNFEAYTMGWYRQAPGKERELVASIDWDGGSTYYADSVKGRFTISRDNAKNTVYLQMNSLKPEDTAVYYCAADSRQYDELGDYDYWGQGTQVTVSS | low polyreactivity
11 | QVQLVESGGGLVQAGGNLRLSCAASGFKFTSYAMGCYIQAPGKERELVAAISTSGDRTYYADSVKGRFTISRDNAKNTVYLQMNSLQPEDTAVYYSAVVRPRSVVRYDSWGQGTQVTVSS | high polyreactivity
12 | QVQLVESGGGLVQEGGSLRLSCAASGSIFQYYALGWYRPAPGKERELVAAISSGGRTNYADSVKGRFTISRDNAKNSVYLQMNSLKPEDTAVYYCAAARYYYQVYRWEYDYWGQGTQVTVSS | high polyreactivity
13 | QVQLVESGGGLVQAGGSLRLSCAASGFTFPGNAMGWYRQAPGKEREFVAAITRSSGSTSYADSVKGRFTISRDNAKNTVYLQMNSLKPDDTAVYRDYWGLGTQVTVSS | low polyreactivity
14 | QVQLVESGGGLVQAGGSLRLSCAASGSIFYSYAMGWYRQAPGKERELVAAITSNAGGITRYADSVKGRFTISRDNAKNTVYLQMNSLKPEDTAVYYCAARGHYYTRYWGQGTQVTVSS | high polyreactivity
15 | QVQLVESGGGLVQAGGSLRLSCAASGLIFARNAMGWYRQAPGKERELVAAISSSGNTYADSVKGRFTISRDNAKNTVYLQMNSLKPEDTAVYYCNKYGVVLPGFDYWGQGTQVTVSS | high polyreactivity
16 | QVQLVESGGGLVQAGGSLRLRCAASGRIFGRNAMGWYRQAPGKERELVAAISGGGSTNYADSVKGRFTISRDNAKNTVYLQMKSLKPADTAVYYCAVKQGFYSRALKLYYWGQGTQVTVSS | high polyreactivity
17 | QVQLVESGGGLVQAGGSLRLSCAASGSTFRTNVMGWYRQAPGKERELVAAITKRGSITYYADSVKGRFTISRDNAKNTVYFQMNSLKPEDTAVYYCAARKVAVGGYGYWGQGTQVTVSS | high polyreactivity
18 | QVQLVESGGGLVQAGGSLRLSCAASGRIFRYYAMGWYRQAPGKERELVARITSGGSTYYADSVKGRFTLSRDNAKNTVYLQMNSLKPEDTAVYYCAAETTRWHPWYDYWGQGTQVTVSS | high polyreactivity
19 | QVQLVESGGGLVQAGGSLRLSCASSGRTFNPYAMGWYRQAPGKERELVAAISRSGGGTYYADSVKGRCTISRDNAKNTVYLQMNSLKPEDTAVYYCNADRATCWEQWWYDNWGQGTQVTVSS | low polyreactivity
20 | QVQLVESGGGLVQAGGSLRLSCAASGSIFYRNAMGWYRQAPGKERELVAAISSDGSTNYADSVKGRFTISRDNAMNTVDLQMNSLKPEDTAVYYCAAPWTQILDYWGQGTQVTVSS | low polyreactivity
21 | QVQLVETGGGIVQAGGSLRLRCAAAGRHCYHNVMGWYRQAPGKERELVAGIRSRGGSTSYADSVKGRFTISRDNSKNTVYLQMNSLKPEDTAVYYCATDTTLWYVLYDYWGQGTQVTVSS | low polyreactivity

Row | Sequence | polyreactivity (PSR sort gate)
22 | QVQLVESGVGLVQAGGSLRLSCAASGYTFQINAMGWYRQAPGKERELVAAITSGGRTYYADSVKGRFTISRDNAKNTVYLQMNSLKAEDTAVYYCNKVPRRGVDYWGQGTQVTVSW | low polyreactivity
23 | QVQLVESGGGLVQAGGSLRLSCAASGSILSGYAMGWYRQAPGKETELVAAITSGGDTNYADSVKGRFTISRDNAKNTVYLQMNSLKPEDTAVYYCNRRGDFRIAYYDPMDYWGQGTQVTVSS | low polyreactivity
24 | QVQLVESGGGLVQAGGSLRLSCAASGRTFTPNGMGWYRQAPGKERELVAAITYGGGITDYADSVKGRFTTSRDNAKNTVYLQMNSLKPEDTAVYYCAATTLSFEGGKYWSKYDYWGQGTQVTVSS | low polyreactivity
25 | QVQLVESGGGLVQAGGSLRLSCAASGSIFPVYTMGWYRQAPWKERELVAAITKTGGSTYYADSVKGRFTISRDNAKNTVYLQMNILIPEDTAVYYCAKPATYYELDYWGQGTQVNVSS | low polyreactivity
26 | QVQLLESGGGLVQAGGSLRLSCAASRRIIYGYAMGWYRQAPGKERELVAAITATYYADSVKGRFTISRDNPKNTVYLLMNSLKAVDTAVYYCNAYLSPKQPLSPQDPTFEGGYWGQCTQVTVSS | low polyreactivity
27 | QVQLVESGGGLVQAGGSLRLSCAASGLIFGYYTMGWYRQAPGKEREFVAAISRGGGSTYYADSVNGRFTISRDNAKNTVYLHMNSLKPEDTAVYYCAAVVYGQVQPAYDYWGQGTQVTVLS | high polyreactivity
28 | QVQLVESGGGLVQAGGSLRLSCAASGFTFTENVMGWYRQAPGKEREFVAAITYIGGRTYYADSVKGRFTISRDNAKNTVYLQMNSLKPEDTAVYYCAADWAYYVASYLYYTFAYWGQGTQVTVSS | low polyreactivity
29 | QVQLQESVGGLVQAGGSLRLSCAASGTISPQPAMGWYRPAPGKEREFVAGIDTGAITNYADSVKGRFTISRDNAKNTVYLQMNSLKPEDTAVYYCAVFPAAYDYYERYYTYWGLGTQVTVSS | low polyreactivity
30 | QDQHVESGGGLVQAGGSLRLSCDASGFIFNQNARGWYRQAPGKERELVAAISQRGGRTYYADSVKGRFTISRDNAKNTVYLQMNSLKPEDTAVYYCAAYGPFRFDVDTYDYWGQGTQVTVSS | low polyreactivity
31 | QDQLVESGGGLVQAGGSLRLSCAASGSIFWYYGMGWYRQAPGKERELVAAISSGGSTNYADSVKGRFAISRDNAKNTVYLQMNSLKPEDTAVYYCAVRFTFPRYPASYSRYYYWGQGTQVTVSS | high polyreactivity
32 | QVQLQESGGLVQAGGLRLSCAASGSVSYQEAMGWYRQAPGKERELVATISFGANTNYADSVKGRFTISRDNAKNTVYLHMNSRKPEDTAVYYCAAESLFDDYYGYWGQGTQVTVSS | low polyreactivity
33 | QVQLQESGGGLVQAGGSLRLSCAASGTISYAPHMGWYRHAPGKERELDAGITIGGTTYYADSVKGRFTISRDYAKNTVDLQMNRLSPGDTAVYYCAAHSEQYTPFYYWGQGTQVTVSS | low polyreactivity
34 | QEQLQESGSGLVQAGGSLRLSCAASGNIFQDWVMAWYRQAPGKERELVAAISPGAITYYADSVKGRFTISRDNAKNTVYLQTNSLKPEDTAVYYCAAYYIVEYLHGYWGQGTRVTVSS | low polyreactivity
35 | QVQLVESGGGLVQAGGSLRLSCAASGSIFRNYAMGWYRQAPGKERELVARISYSGGRTHYADSVKGRFTISRDNAKNTVYFQMNSLNPEDTAVYYCAAPFHFTHFQGNYYWGQGTQVTVSS | low polyreactivity
36 | QVQLVESGGGLVQAGGSLRLSCAASGITFSYYAMGWYRPAPGKERELVAAINSGGGSTYYADSVKGRFTISRDNAKNTVYLQMNSLKPEDTAVYYCAARYRSRYDYYYDRDYWGQGTQVTVSS | low polyreactivity
37 | QVQLVESGGGLVQAGGSLRLSCAASGSIFRFYAMGWYRQAPGKEGELVAAITSGGSTNYADSVKGRFTISRDNAKNTVYLQMNSLKPEDTAVSYCAAVVVYFFIYDYWGQGTQVTVSS | low polyreactivity
38 | HVQLVESGGGLVQAGGSLRLSCAASGSIFVVYAMGWYRQAPGKERELVASIRTGGSTNYADSVKGRYTISRDNAKNTVYLQMNSLKPEDTAVYYCAAASWNSNRHYYVARYYYWGQGTQVTVSS | high polyreactivity
39 | QVQLVESGGGLVQAGGSLRLSCAASGIIFWQYAMGWYRQAPGKERELVAAISRSGGNTYYADSVKGRFTISRDNAKNTVYLQMNSLKPEDTAVYYCNARRYLRGYGYGYWGQGTQVTVSS | high polyreactivity
40 | QVQLVESGGGLVPAGGSLRLSCAASGFTFPAYTRGWYRPAPGKERELVAAITSSGGNTYYADSVKGRFTISRDNAKNTVYLQMNSLKPEDTAVYYCNADASSSPYTDRQYIGADDSWGQGTQVTVSS | low polyreactivity
41 | QVQLVESGGGLVQAGGSLRLSCAASGSIFIPNAMGWYRQAPGKERELVAAISLSDTTTYYADSVKGRFTISRDNAKNTVYLQMNSLKPEDTAVYYCAADYWFYPTSPVMDYWGQGTQVTVSS | low polyreactivity
